Drawing on patent US9644025, this text covers Relative Binding Capability (%) for one substance.

The target of the test is Human FcγRII, His-tagged domain (R&D Systems, Cat # 1330-CD) (human) (UniProt P12318). Nature of the test: SPR (Biacore 3000), His-tagged receptor captured by penta-His antibody on CM5 chip, antibody injected; steady-state RU relative to control. On the technique in general: SPR reads the build-up and loss of mass on a sensor chip optically.

Regarding Bapineuzumab (antibody), the Relative Binding Capability (%) came to 100%.
